138 substances from the supplement of paper PMC12042874 can be followed below.

± gives the uncertainty stated by the source.

The nature of this data set: amyloid nucleation score (Sup35N fusion, yeast selection) (log enrichment); library NNK2; higher = more nucleation; inactive = no reads after selection. The method in brief:
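The nucleation score is the log enrichment of output over input reads, calculated with DiMSum and centred on the mode score of non-aggregating sequences. Sequences with under 100 input reads were excluded. Reads came from Illumina sequencing of plasmid inserts from psi-negative yeast expressing Sup35N fused to peptides of 20 random codons, induced 24 hours with 100 μM copper sulfate and grown 7 days at 30°C without adenine and uracil.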
The substance NIYLFMLMWDWTSYMALCCV returned an amyloid nucleation score of 3.94 ± 0.081.
For the substance NKANLLYSPLLCLMAVHRMY, the amyloid nucleation score entry is “inactive”.
On to NKMEDHGMWDLIAYRGVIPL, for which the amyloid nucleation score is -0.269 ± 0.22.
Regarding NKVAKLDFFFLKGPAFRNKA, the amyloid nucleation score result is “inactive”.
The substance NLARYLLRKELARYFMSQ displayed an amyloid nucleation score of -0.578 ± 0.41.
In the case of NLCSKRRNL it was -0.927 ± 0.78.
In the case of NLFKDTISSLHNGIETIAPF it was -0.82 ± 0.61; in that of NLFLFVRGLGRGWSWWWEVR, 0.415 ± 0.8.
For NLHFCVQKSGESASRVVHHA the value was 0.958 ± 0.46; for NLHLSGKMGSPTFRVRIYAH, “inactive”; for NLILYPRHDNYQSS, “inactive”.
On to NLMIKCVGR, for which the amyloid nucleation score was -1.05 ± 0.76.
For NLMVHVFAAVMGINDLKC the value was 1.41 ± 0.18.
NLNIFGLAMLCNRRGAYMRK gave an amyloid nucleation score of 6.829 ± 0.039.
In the case of NLNPRCIACLQQPTFHMKMA it was -0.101 ± 0.32; in that of NLPIGLCSAGRFLGNNL, 0.123 ± 1; in that of NLPLL, -0.027 ± 0.54.
For NLQSTMMLYYCFRVMMLLAW the value was -0.762 ± 0.38; for NLRSLECLCMRCK, -0.145 ± 0.79.
For NLSRV the value was -0.741 ± 0.34; for NLTNRYFNFSRTEPCNKYLT, 0.895 ± 0.81; for NLVTFVWKRYLINIISVTKD, -1.51 ± 1.1.
Take NMPFYRFAKRTWFRNPQSFV: the amyloid nucleation score was -1.19 ± 1.
In the case of NMPHPHEFIRSPCICLRHVV it was “inactive”; in that of NMRSNRVSLVPDGMLRLSAN, 1.39 ± 0.28; in that of NMSLHRAILGFKAATIMRSL, -0.821 ± 1.1.
In the case of NMYFEVALFT it was -1.22 ± 0.64; in that of NNIGS, “inactive”.
Substance NNIVIYDDLYNSMMALLWS gave an amyloid nucleation score of -1.25 ± 0.64.
For NNLCQ the value was -0.1 ± 0.32.
For NNSMYILYSGYTFGCYTRGL the value was 6.38 ± 0.066; for NNVPCRSIADVYALEFLYAS, “inactive”; for NPALSSWAEGSTP, 0.299 ± 0.61.
As to NPRTQF, the amyloid nucleation score was -0.108 ± 0.28.
In turn, NPVINT showed an amyloid nucleation score of -0.271 ± 0.46.
For NQFNVFFASVVLVVGCICNH the value was 7.622 ± 0.029; for NQGIKRRLFHNWLNRGRLLF, “inactive”; for NQITDMLIFWFVGIRWFYSE, 0.679 ± 0.81.
NQLRVLMTFFWPGMLNTPAV came in with an amyloid nucleation score of -0.089 ± 1.1.
For NQMYQNE the value was -0.352 ± 0.45; for NQNVSLGVTMCFNSNYDRQG, 7.53 ± 0.081; for NQTPLMLACSADFHSISSWT, 0.365 ± 0.4.
For NRCWGDHEV the value was 0.435 ± 0.39.
Regarding NRCYHFRDCQVYLTQDASWA, the amyloid nucleation score worked out at 8.515 ± 0.048.
NREANLDDWLGRGQFSMIWW yielded an amyloid nucleation score of -0.287 ± 0.79.
For NREFCFFVSDVKIPYTPCVP the value was -0.609 ± 0.32; for NRGEDSPSYPGCHHMKLCIC, “inactive”.
As for NRGISLGIHLRPGCMCAAHR, the amyloid nucleation score was 0.005 ± 1.
NRIGDIGFSPNMCQAPNDVD came in with an amyloid nucleation score of 0.095 ± 0.53.
For NRKTIIVEPTNACRS the value was 0.775 ± 0.29; for NRKWIDRLVYKGNNPYHGEV, 0.906 ± 0.57; for NRLLSVSEFAMDTRMRQEEA, 1.01 ± 0.36.
In the case of NRLWHPQCLWAFLNIRNPQL it was 0.286 ± 0.48; in that of NRNHMCRSCYMGWFRGRAKA, -1.04 ± 0.42; in that of NRSHCIVVQLLRCFGYVPYG, “inactive”.
Consider NRSREELYARNKQYFSFI, for which the amyloid nucleation score is -0.986 ± 0.76.
In the case of NRSTDAYFIILHICYTNGVY it was -0.429 ± 0.61; in that of NRVFVVND, 1.4 ± 0.2; in that of NRYYYISSQGDDMQAGCFHY, -0.963 ± 1.1.
In turn, NSASLFFS displayed an amyloid nucleation score of 0.27 ± 0.17.
For NSIESNSCKWVRNVCTANSG the value was -0.587 ± 0.76; for NSLRCSLIWMGQLPLSGTHV, “inactive”; for NSMNVGSFRSSEWLVLFENV, -0.453 ± 1.1.
For NSNGTFGQCLVM the value was -0.293 ± 0.5; for NSPNCDHASRKLIHR, 0.07 ± 0.61.
Regarding NSRIL, the amyloid nucleation score result was “inactive”.
For NSRISKNNLSRSLT the value was -0.196 ± 0.56; for NSRLMMCEIPERCM, 0.512 ± 0.28.
In the case of NSRNSSYKWFSSSFVHVADF it was 1.71 ± 0.088; in that of NSSPTSFLLIMSLNCCICVN, 8.228 ± 0.024.
In turn, NSSVW registered an amyloid nucleation score of -1.01 ± 0.48.
In the case of NSVMIDTDVKFAFFRSET it was “inactive”; in that of NSVSCANYTLHPIAMDWNGP, “inactive”; in that of NSYIRHSFLQTRFISTNV, -0.306 ± 0.36.
On to NTGVIYDAT, for which the amyloid nucleation score is -0.307 ± 0.63.
For the substance NTIMFEFICSIGITVYD, the amyloid nucleation score came to 1.33 ± 0.21.
In the case of NTLSR it was 5.654 ± 0.05; in that of NTMMGV, -0.724 ± 0.64.
For NTMTSHMFENNRSIVTYLDV the value was -0.718 ± 0.76.
Turning to NTNASDWRGAMLLSCMRFYS, the amyloid nucleation score is -0.257 ± 0.42.
In the case of NTNRVVWVVLAMKI it was 0.086 ± 0.77; in that of NTTMWGHVYMHLANMYTEFC, “inactive”; in that of NTVKKLHLLQHHRVYVCATT, -0.965 ± 0.78.
For NTVWSFSSEWLFKQQLVCVR the value was 0.091 ± 0.53; for NVGSVKHGS, 0.531 ± 0.57.
For NVGTEFVWIPYFYSAS the value was 0.716 ± 0.66; for NVIRHLPPSYWRSLHSQMFP, “inactive”; for NVLCKRVMMV, 0.384 ± 0.66.
In the case of NVRDSYVNNCMTKGPRLNGV, the amyloid nucleation score was -0.686 ± 0.34.
For NVWILNNYGQCIKS the value was 5.254 ± 0.023; for NVYSAYNLACFALLYCLLIW, 0.691 ± 0.8.
Substance NWIDVLFKCKC came in with an amyloid nucleation score of -0.156 ± 0.62.
Regarding NWIQRQVL, the amyloid nucleation score result is “inactive”.
In the case of NWLIMYNFAR it was “inactive”; in that of NWPETT, 2.48 ± 0.19; in that of NWSVILYIRACTASNIEWLS, 1.52 ± 0.44.
In turn, NWTLYFDNRGRVLNTYSTRY had an amyloid nucleation score of 7.718 ± 0.031.
In the case of NWVPLLFDY it was “inactive”; in that of NYAQATRMFFNLMKSWLKMR, -1.02 ± 1.1.
For NYCRVDLHSYKCYVVCSMFM the value was 4.76 ± 0.11; for NYCYLFLTYCWVQRMSEGFS, 2.88 ± 0.098; for NYFVNSI, “inactive”.
NYGGPMVNDAFVCTLAGPV: the amyloid nucleation score result was “inactive”.
In turn, NYGSSRLAPVHNT came in with an amyloid nucleation score of 3.17 ± 0.12.
In the case of NYGSTLVDWRVRFTRTRTWS, the amyloid nucleation score is 0.503 ± 0.3.
On to NYILRQAGEMFGLLGDFGDG, for which the amyloid nucleation score was -0.165 ± 0.45.
Consider NYIVVARFYSRVVFFRV, for which the amyloid nucleation score result was “inactive”.
For NYKYINVHGGYVSCLKREEE the value was “inactive”; for NYLDLFTRVWKS, “inactive”; for NYLQCWVFGRESMSLYKIWL, -0.081 ± 1.1.
In the case of NYLRYLLMDSHMRLMDRWKQ it was 4.87 ± 0.069; in that of NYLYHLPYLRTSVLRRLRPV, 0.426 ± 0.3.
In turn, NYRRGEKNGVDVNLASKQCT returned an amyloid nucleation score of 0.86 ± 0.46.
For NYSIFDWTCSSKMSIITCAK the value was 5.697 ± 0.029.
NYTWGEIYGH gave an amyloid nucleation score of -1.2 ± 0.79.
In the case of NYVYSTCYALDQCQFKYNVQ it was 0.655 ± 0.26.
In the case of NYYINDADGRLLARWLYKLF it was -0.865 ± 0.25; in that of NYYYIVLLYRSLLLMS, -0.265 ± 0.41; in that of PACYKDYGSKSPHPPTVGLG, -0.159 ± 0.76.
For the substance PAFQCMVQMKPGLWVV, the amyloid nucleation score is -0.456 ± 0.78.
Regarding PAFVYHFYQYNLTICYGYLG, the amyloid nucleation score is -0.313 ± 0.5.
In turn, PCIGSQFFYSFGGLIK displayed an amyloid nucleation score of -0.736 ± 0.35.
In turn, PCSLLKNWYIEAYTALQNIG returned an amyloid nucleation score of 0.383 ± 0.74.
In the case of PCSWPNPHLRIGFRLKSPPP it was 4.34 ± 0.076.
On to PCTVHASNRTLGHRVKSCSV, for which the amyloid nucleation score was -0.515 ± 1.1.
PCWLNGWERFHIWRFNGSVR registered an amyloid nucleation score of -0.281 ± 0.37.
Substance PDGSASIGGYYGQFLL showed an amyloid nucleation score of -0.746 ± 0.62.
For PDIYLYFLKKVMRS the value was -1.57 ± 1.1; for PDPLWGRPFYIWIMELGSRK, 2.32 ± 0.13.
In the case of PDWLCEVKRIYELIGYMALI it was 0.41 ± 0.41; in that of PESGGNAIFAHERMQLGRRS, 0.92 ± 0.57; in that of PFCPFSEAVWMSTITLQHEG, -0.054 ± 0.32.
In the case of PFSYFRWWPYRILAWSTWLV it was 4.89 ± 0.061; in that of PFVTK, 0.259 ± 0.29; in that of PFVVNVAGLKMSVRV, 3.71 ± 0.07.
In the case of PGSTRAFIMAVWGAPTEWER, the amyloid nucleation score was determined as 2.86 ± 0.16.
In the case of PHKSAGGRLSMFGAKHGDMV it was 0.822 ± 0.49; in that of PIFLFQRYPLLGLWLKKACD, “inactive”.
